Data reported in the nanobody polyreactivity screen of Harvey et al. (2022).

Assay: yeast display, Sf9 membrane polyspecificity reagent, FACS + sequencing; frameworks hold sequencing errors
Summary of the method: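 Synthetic nanobody libraries on Saccharomyces cerevisiae BJ5465 were galactose-induced for 36–48 hours, stained 1 hour at 4 °C with 10% biotinylated, detergent-solubilized Sf9 membrane reagent and enriched on streptavidin microbeads. FACS then separated cells into low and high (top ~1%) gates by anti-HA (expression) and streptavidin (reagent binding) fluorescence. Genes were colony-PCR amplified, MiSeq 2 × 250 sequenced and CDR-length filtered. A clone's polyreactivity label is that of its gate of origin.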

Row | Sequence | polyreactivity (PSR sort gate)
1 | QVQLVDSGGGLVQAGGSLRLSCAASGFIFGKNAMGWYRQAPGKERELVAVISWRGSSTNYADSVKGRFTISRDNAKNTVYLQMNSLKPEDTAVYYCAARYPARGTLYYWGQGTQVTVSS | low polyreactivity
2 | QVQLVDSGGGLVQAGGSLRLSCAASGFIFVKYAMGWYRQAPGKERELVAAITTSGTGTFYADSVKGRFTISRDNAKNTVYLQMNSLKPEDTAVYYCNALGHPGDDWGQGTQVTVSS | low polyreactivity
3 | QVQLVDSGGGLVQAGGSLRLSCAASGFILGSNVMGWYRQAPGIERELVAAISYSGGSTYYADSVKGRFTISRDNAMNTVYLQMNILKPEDTAVYYCNARPSDVWYYYWGQGTQVTVSS | low polyreactivity
4 | QVQLVDSGGGLVQAGGSLRLSCAASGFNFDRNTMGWYRKAPGKERELVATISSTGTTNYADSVKGRFTISRDNAKNTVYLQMNSLKPEDTAVYYCNAYPRWRYVSYYRSYRYDYWGQGTQVTVSS | high polyreactivity
5 | QVQLVDSGGGLVQAGGSLRLSCAASGFTFGPYAMGWYRQAPGKERELGARITYRTGSTYYGDSVKGRFTISRDNAKNTVYLQINSLKPEDTAVYYCAAAYYCGQGTQVTVSS | high polyreactivity
6 | QVQLVDSGGGLVQAGGSLRLSCAASGFTFSYYVMGWYRQAPGKERELVAAITSSGGSTYYADSVKGRFTISRDNAKNTVSLQMISRNPEDTAVYYCNALVLSSEYGYWGLGTQVTVSS | high polyreactivity
7 | QVQLVDSGGGLVQAGGSLRLSCAASGFTFVYNVMGWNIQAPGKERELVAAINAGGGSTYYADSVKGRFTISRDNAKNTVYLQMNSLKPEDTAVYYGNARVRVRVGRNWSSYYYWGQGTQVTVSS | high polyreactivity
8 | QVQLVDSGGGLVQAGGSLRLSCAASGFTFYANAMGWYRQAPGTERELVAALSRGVSPTYADSVKGRFTISRDNGKNTVYLEMNSLKPEDTAVYYCASDGNVIAQGYDYWGQGTQVTVSS | low polyreactivity
9 | QVQLVDSGGGLVQAGGSLRLSCAASGGTFDTYAMGWYRQAPGKERELVAVIRASGGDTYYADSVKGRFTISRDNAKNTVYLQMNSLKPEDTAVYYCAAVLPFKYDYWGQGTQVTVSS | low polyreactivity
10 | QVQLVDSGGGLVQAGGSLRLSCAASGHTLAVNAMGWYRPAPGKERELVAAITSSGGSTSYADSEKGRFTISRDNAKNTVYLQMNSLKPEDTAVYYCAAEQRYPLIILYDYWGQGTQVTVSS | low polyreactivity
11 | QVQLVDSGGGLVQAGGSLRLSCAASGITFGNYAMGWYRQAPGKERELVASISWNVGSTYYADSVKGRFTISRDNAKNTVYLQMNSLKPEDTAVYYCARGYDRPRVATFHRFDYWGQGTQVTVSS | low polyreactivity
12 | QVQLVDSGGGLVQAGGSLRLSCAASGITFRGYAMGWYRQSPGKERELVATITSSGGSTYYADSVKGRFTISRDNAKNTVYLQMNSLKPEDTAVYYCAAVPYTRYSSSRGYWGQGTQVTVSS | high polyreactivity
13 | QVQLVDSGGGLVQAGGSLRLSCAASGITFWDNVMGWYRQATGKERELVATITYRGGSTYADSVKGRFTISRDNAKITVFLQMNSVKPEDTAVYYCNTGVTVDILSYDSWGQGTQVTVSS | low polyreactivity
14 | QVQLVDSGGGLVQAGGSLRLSCAASGLTFKRYAMGWYRQAPGKERQLVASITGNGGSSYYADSVKGRFTISRDNAKNTVYLQMNSLKPEDTAVYYCNARRYVRTSQQPLYDYWGQGTQVTVSS | high polyreactivity
15 | QVQLVDSGGGLVQAGGSLRLSCAASGNIFWENTMGSYRQAPGKERELVASISNTGTTNYADSVKGRFTISRDNAKNTVYLQMNSLKPEDTAVYDCNTDLWIDTASPAPNDDDYWGQGTQVTVSS | low polyreactivity
16 | QVQLVDSGGGLVQAGGSLRLSCAASGNTIGRNAMGWYRQAPGKEWELVAAISFSGSRTYYADSVKGRFTISRDNAKNSVYLQMNILKPEDTAVYNFIAPEGRKPYDSWVQGTQVTVSS | low polyreactivity
17 | QVQLVDSGGGLVQAGGSLRLSCAASGRIFAWYAMGWYRQAPGKERELVAAISSGGSTNYADSVKGRFTISRDNAKNTVYLQMNSLKPEDTAVYYCNRYPVRDTGGYWGQGTQVTVSS | low polyreactivity
18 | QVQLVDSGGGLVQAGGSLRLSCAASGRIFEGDAMGWYIQAPGKESDLVASISYDGGSTYYADSVKGRFTISRDNENITVELQMNSLKPEDTAVYYCAAVYRRRSYSFYYWGQGTQVTVSS | high polyreactivity
19 | QVQLVDSGGGLVQAGGSLRLSCAASGRIFNWYAMGWYRQAPGKERELVARITWCDGGTYYADSVKGRFTISRDNAKNTVSLQMNSLKPDDTAVYYCAKQWKSYYALDYWGQGTQVTVSS | high polyreactivity
20 | QVQLVDSGGGLVQAGGSLRLSCAASGRIFPRNAMGWYRQAPGKERELVATIRSSTYYADSVKGRFTISRDNAKNTVYLQMNSLKPEDTAVYYCNVRLSYSYISPSDWNFDYWGQGTQVTVSS | low polyreactivity
21 | QVQLVDSGGGLVQAGGSLRLSCAASGRIFPVYAMAWYRHAPGKEREMVAAITKSGGNTYYADSVKGRFTISRDNAKYTVYLQMNSMKPEDTAVYYCAADSSAKMGPQYYYALDYWGQGTKVTVSS | low polyreactivity
22 | QVQLVDSGGGLVQAGGSLRLSCAASGRIFPYYTMGCYRQAPGKETEFVAAISSSSVSTYYADSVKGRFTISRDNAKNTVYLQMNSLKAEDTAVYYCAAKRVGYHIGYVYPYGYWGQGTQVTVSS | high polyreactivity
